The target in experiment [1] is FDX2ALC (ferredoxin-2 labelled with ALC 480) (human) (UniProt Q6P4F2). Description: flow-induced dispersion analysis.
Experiment [2] concerns the target FXNALC (frataxin labelled with ALC 480) (human) (UniProt Q16595). The experiment is described as follows: flow-induced dispersion analysis.
Experiment [3] addresses cysteine desulfurase complex (NFS1–ISD11–ACP)2 (human) (UniProt Q9HD34). Description: ITC.
The target of experiment [4] is (NFS1–ISD11–ACP–ISCU2)2 complex (human) (UniProt Q9HD34). The experiment is described as follows: ITC.

pKd: −log10 of the molar value.

ferredoxin-2 (FDX2), wild type, sequence (Q6P4F2 53-183): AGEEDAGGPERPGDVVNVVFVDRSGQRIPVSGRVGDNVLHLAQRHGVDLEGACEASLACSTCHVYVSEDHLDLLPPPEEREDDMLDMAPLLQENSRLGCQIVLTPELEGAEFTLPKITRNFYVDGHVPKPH
FDX2ALC (ferredoxin-2 labelled with ALC 480) (human), sequence (Q6P4F2 53-183): as above

Turning to “(NFS1–ISD11–ACP–ISCU2)2 complex (from UniProt Q9HD34 1-91; O14561 69-156; Q9H1K1-1 35-167)”, the negative logarithm of the Kd (pKd) in experiment [1] was 4.80; in experiment [2], 6.99.
Regarding “FDX2 D179A (from UniProt Q6P4F2 53-183) (natural protein)”, in experiment [3], the negative-log Kd (pKd) was 7.41.
Regarding “ferredoxin-2 (FDX2), wild type (from UniProt Q6P4F2 53-183) (natural protein)”, in experiment [4], the KD of the tight-binding exothermic mode came to 102 nM.
In experiment [4], “frataxin (FXN) (from UniProt Q16595 42-210) (natural protein)” had a pKd of 6.84.

The term pKd denotes the Kd on a negative log10 scale, so that one unit is a factor of ten. Read a low pKd as a large Kd.

These data come from PMC12804074.
